Measurements reported in the supplement of paper PMC7877785.
± gives the uncertainty stated by the source.

Test: self-splicing fitness, log relative to wild type (ln ratio); higher = more splicing; Tetrahymena group I intron in knt gene, E. coli kanamycin selection, DiMSum; sequences stand for … in CUCUCU…GGAGGGAAAAGUUAUCAGGCAUGCACCUGGUAGCUAGUCUUUAAACCAAUAGAUUGCAUCGGUUUAAAAGGCAAGACCGUCAAAUUGCGGGAAAGGGGUCAACAGCCGUUCAGUACCAAGUCUCAGGGGAAACUUUGAGAUGGCCUUGCAAAGGGUAUGGUAAUAAGCUGACGGACAUGGUCCUAACCACGCAGCCAAGUCCUAAGUCAACAGAUCUUCUGUUGAUAUGGAUGCAGUUCACAGACUAAAUGUCGGUCGGGGAAGAUGUAUUCUUCUCAUAAGAUAUAGUCGGACCUCUCCUUAAUGGGAGCUAGCGGAUGAAGUGAUGCAACACUGGAGCCGCUGGGAACUAAUUUGUAUGCGAAAGUAUAUUGAUUAGUUUUGGAGUACUCGUGGUCG
In short: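 DiMSum derived fitness as the error-weighted combination of fold changes across replicates, kanamycin versus no kanamycin, normalised to wild type. E. coli BL21(DE3) held the library, which randomised all eight P1ex-region intron nucleotides within the knt kanamycin-resistance gene on pET-22b(+). Six replicate transformations grew overnight at 37°C or 30°C on LB agar with or without 25 μg/mL kanamycin, also containing 100 μg/mL carbenicillin, 50 μM IPTG and 0.2% rhamnose, and pooled colonies were amplicon-sequenced on an Illumina HiSeq 2500.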

Sequence	self-splicing fitness (ln) (30 °C)	self-splicing fitness (ln) (37 °C)
GUUUAGCAAUAUUACGUUUC	-2.17 ± 0.21	-2.07 ± 0.23
UAAAAGCAAUAUUACGACAC	-1.88 ± 0.15	-0.594 ± 0.17
UAAAAGCAAUAUUACGAUCG	0.0746 ± 0.077	0.385 ± 0.1
UAAAAGCAAUAUUACGCCUA	0.161 ± 0.073	-0.367 ± 0.081
UAAAAGCAAUAUUACGCUAU	-2.11 ± 0.15	-2.2 ± 0.19
UAAAAGCAAUAUUACGCUCA	-0.334 ± 0.11	0.128 ± 0.12
UAAAAGCAAUAUUACGCUCG	-0.628 ± 0.084	0.0432 ± 0.099
UAAAAGCAAUAUUACGGCCA	0.0708 ± 0.15	0.573 ± 0.19
UAAAAGCAAUAUUACGGCGC	-1.64 ± 0.12	-0.483 ± 0.13
UAAAAGCAAUAUUACGGUAA	-1.94 ± 0.14	-0.97 ± 0.098
UAAAAGCAAUAUUACGUCAC	-3 ± 0.2	-2.25 ± 0.28
UAAAAGCAAUAUUACGUCAU	-3.62 ± 0.14	-1.88 ± 0.1
UAAAAGCAAUAUUACGUGAC		-3.43 ± 0.46
UAACAGCAAUAUUACGAAUG	-0.844 ± 0.085	-0.788 ± 0.098
UAACAGCAAUAUUACGACAC	-3.35 ± 0.16	-0.676 ± 0.11
UAACAGCAAUAUUACGACGU	-1.16 ± 0.071	-0.452 ± 0.091
UAACAGCAAUAUUACGAGCA	-1.22 ± 0.1	-0.317 ± 0.1
UAACAGCAAUAUUACGAGGG	-3.58 ± 0.2	-3.12 ± 0.22
UAACAGCAAUAUUACGAUAG	-1.21 ± 0.11	-0.506 ± 0.12
UAACAGCAAUAUUACGAUGC	-3.84 ± 0.33	-2.35 ± 0.26
UAACAGCAAUAUUACGCAUA	-0.955 ± 0.075	-0.0703 ± 0.069
UAACAGCAAUAUUACGCCAA	-3.04 ± 0.19	-1.38 ± 0.14
UAACAGCAAUAUUACGCGGG	-2.44 ± 0.1	-1.18 ± 0.078
UAACAGCAAUAUUACGCUAG	-1.81 ± 0.071	-0.992 ± 0.08
UAACAGCAAUAUUACGGACU	-1.02 ± 0.064	-0.504 ± 0.089

Sequence	self-splicing fitness (ln) (30 °C)	self-splicing fitness (ln) (37 °C)
UAACAGCAAUAUUACGGCGG	-0.643 ± 0.053	-0.105 ± 0.068
UAACAGCAAUAUUACGGCGU	-1.79 ± 0.11	-1.01 ± 0.1
UAACAGCAAUAUUACGGUCC	-2.94 ± 0.15	-1.99 ± 0.19
UAACAGCAAUAUUACGUGCU	-3.33 ± 0.16	-2.28 ± 0.16
UAACAGCAAUAUUACGUUGU	-4.18 ± 0.16	-2.67 ± 0.14
UAAGAGCAAUAUUACGAGAA		-1.68 ± 0.46
UAAGAGCAAUAUUACGAGCU	-2.93 ± 0.3	-2.6 ± 0.44
UAAGAGCAAUAUUACGAGGC		-1.97 ± 0.41
UAAGAGCAAUAUUACGAGUA	-2.94 ± 0.19	-2.66 ± 0.21
UAAGAGCAAUAUUACGAUUU	-2.44 ± 0.17	-0.0704 ± 0.12
UAAGAGCAAUAUUACGCAUC	-4.23 ± 0.3	-3.46 ± 0.37
UAAGAGCAAUAUUACGCGCC		-1.6 ± 0.38
UAAGAGCAAUAUUACGGACA	-1.78 ± 0.25	-2.31 ± 0.35
UAAGAGCAAUAUUACGGCUU	-2.3 ± 0.2	-1.44 ± 0.22
UAAGAGCAAUAUUACGGGGG	-2.94 ± 0.22	
UAAGAGCAAUAUUACGGGUC		-1.7 ± 0.41
UAAGAGCAAUAUUACGUACA	-2.95 ± 0.37	-1.59 ± 0.4
UAAGAGCAAUAUUACGUCGU	-4.06 ± 0.31	-3.11 ± 0.43
UAAGAGCAAUAUUACGUCUG	-1.54 ± 0.093	-0.00255 ± 0.11
UAAGAGCAAUAUUACGUGUU	-3.32 ± 0.18	-2.96 ± 0.3
UAAGAGCAAUAUUACGUUGA		-1.97 ± 0.19
UAAGAGCAAUAUUACGUUGU	-1.95 ± 0.2	-0.367 ± 0.31
UAAUAGCAAUAUUACGAUUA	-1.04 ± 0.13	0.0261 ± 0.14
UAAUAGCAAUAUUACGCAAU	-3.5 ± 0.23	-2.4 ± 0.26
UAAUAGCAAUAUUACGCCUC	-2.77 ± 0.35	-1.53 ± 0.38

Sequence	self-splicing fitness (ln) (30 °C)	self-splicing fitness (ln) (37 °C)
UAAUAGCAAUAUUACGCGUC	-2.88 ± 0.36	-2 ± 0.38
UAAUAGCAAUAUUACGCUAG	-2.46 ± 0.12	-0.773 ± 0.14
UAAUAGCAAUAUUACGCUUC		-1.72 ± 0.29
UAAUAGCAAUAUUACGGAAU	-2.77 ± 0.2	-1.76 ± 0.2
UAAUAGCAAUAUUACGGAGG	-3.17 ± 0.24	-2.83 ± 0.4
UAAUAGCAAUAUUACGGGCU	-3.28 ± 0.27	-2.16 ± 0.19
UAAUAGCAAUAUUACGGGGU	-3.73 ± 0.42	-1.38 ± 0.45
UAAUAGCAAUAUUACGGUAA		-1.04 ± 0.28
UAAUAGCAAUAUUACGGUCC	-2.53 ± 0.33	
UAAUAGCAAUAUUACGGUUU	-2.92 ± 0.19	-1.39 ± 0.18
UAAUAGCAAUAUUACGUACG	-2.13 ± 0.13	-1.16 ± 0.17
UAAUAGCAAUAUUACGUCUA	-0.149 ± 0.084	0.263 ± 0.087
UAAUAGCAAUAUUACGUGAU	-4.15 ± 0.37	-1.61 ± 0.21
UAAUAGCAAUAUUACGUGUA	-2.19 ± 0.12	-0.918 ± 0.1
UAAUAGCAAUAUUACGUUUC	-2.95 ± 0.45	-1.35 ± 0.23
UAAUAGCAAUAUUACGUUUG	-0.989 ± 0.099	0.00265 ± 0.12
UACAAGCAAUAUUACGAACG	-0.239 ± 0.065	-0.0708 ± 0.08
UACAAGCAAUAUUACGACCA	-0.29 ± 0.12	-0.203 ± 0.16
UACAAGCAAUAUUACGACUU	-1.19 ± 0.081	-0.692 ± 0.097
UACAAGCAAUAUUACGAGCC	-2.24 ± 0.48	
UACAAGCAAUAUUACGAGGU	-4.06 ± 0.28	-1.94 ± 0.28
UACAAGCAAUAUUACGAUCA	-0.336 ± 0.079	0.387 ± 0.11
UACAAGCAAUAUUACGAUGC	-3.69 ± 0.28	-3.13 ± 0.29
UACAAGCAAUAUUACGCACA	-1.23 ± 0.11	-0.242 ± 0.11
UACAAGCAAUAUUACGCAUU	-3.38 ± 0.19	-1.63 ± 0.16

Sequence	self-splicing fitness (ln) (30 °C)	self-splicing fitness (ln) (37 °C)
UACAAGCAAUAUUACGCGAU	-3.74 ± 0.32	-1.3 ± 0.2
UACAAGCAAUAUUACGCGCU	-1.39 ± 0.12	-0.322 ± 0.11
UACAAGCAAUAUUACGCGUU	-2.57 ± 0.096	-1.71 ± 0.093
UACAAGCAAUAUUACGCUAU	-3.38 ± 0.13	-1.83 ± 0.11
UACAAGCAAUAUUACGGAGA	-2.4 ± 0.17	-3.27 ± 0.23
UACAAGCAAUAUUACGGAGG	-3.94 ± 0.22	-2.03 ± 0.16
UACAAGCAAUAUUACGGAUG	-1.16 ± 0.078	-0.694 ± 0.11
UACAAGCAAUAUUACGUAAC	-4.15 ± 0.16	-2.28 ± 0.15
UACAAGCAAUAUUACGUGGA	-2.82 ± 0.15	-2.27 ± 0.11
UACAAGCAAUAUUACGUUAU	-3.39 ± 0.19	-1.81 ± 0.1
UACAAGCAAUAUUACGUUUG	-3.72 ± 0.13	-2.57 ± 0.15
UACCAGCAAUAUUACGAGAA	-1.72 ± 0.14	-1.22 ± 0.13
UACCAGCAAUAUUACGAGGA	-1.63 ± 0.14	-1.24 ± 0.12
UACCAGCAAUAUUACGAUAU	-2.78 ± 0.12	-1.32 ± 0.12
UACCAGCAAUAUUACGAUUA	-0.0875 ± 0.065	0.118 ± 0.075
UACCAGCAAUAUUACGAUUC	-2.36 ± 0.21	-1.55 ± 0.18
UACCAGCAAUAUUACGAUUG	-2.62 ± 0.084	-1.35 ± 0.079
UACCAGCAAUAUUACGCAGU	-4.06 ± 0.27	-2.62 ± 0.18
UACCAGCAAUAUUACGCGGC	-3.78 ± 0.13	-3.27 ± 0.18
UACCAGCAAUAUUACGCUAA	-1.14 ± 0.081	-0.492 ± 0.092
UACCAGCAAUAUUACGCUAC	-3.17 ± 0.2	-1.83 ± 0.18
UACCAGCAAUAUUACGCUCA	0.178 ± 0.073	0.378 ± 0.081
UACCAGCAAUAUUACGCUUA	-0.566 ± 0.056	-0.478 ± 0.07
